Results taken from patent publication US20230279491A1, “TREATMENTS FOR A SUB-POPULATION OF INFLAMMATORY BOWEL DISEASE PATIENTS” (CEDARS-SINAI MEDICAL CENTER, priority 2020, published 2023).

Test system: T-cells
Test: TL1A treatment of T-cells (IL12+IL18, TL1A+IL12+IL18, untreated): miR-155, INFG and IL22 expression
Format: cell-based
From the text: T-cells were divided into 3 treatment groups: cells treated with IL12+IL18, cells treated with TL1A+IL12+IL18, and untreated cells (ut), as depicted in FIG. 13A.

[1] = TL1A+IL12+IL18 compared to no treatment or only IL12 and L18 treatment
[2] = treatment with TL1A (TL1A+IL12+IL18)

B1: TL1A: TNF Superfamily Member 15 (TL1A), cytokine encoded by TNFSF15, used to treat T-cells (protein)
chain: MAEDLGLSFGETASVEMLPEHGSCRPKARSSSARWALTCCLVLLPFLAGLTTYLLVSQLRAQGEACVQFQALKGQEFAPSHQQVYAPLRADGDKPRAHLTVVRQTPTQHFKNQFPALHWEHELGLAFTKNRMNYTNKFLLIPESGDYFIYSQVTFRGMTSECSEIRQAGRPNKPDSITVVITKVTDSYPEPTQLLMGTKSVCEVGSNWFQPIYLGAMFSLQEGDKLMVNVSDISLVDYTKEDKTFFGAFLL
FIG. 13B
  miR-155 expression: upregulation
[1]
  miR-155 3p: upregulation
  miR-155 5p: upregulation
Cells treated with TL1A (TL1A+IL12+IL18)
  IL22 mRNA: increased
[2]
  INFG secretion: increase
  levels of INFG mRNA: increase
